These results are taken from patent US20230250148A1 (published 2023).

The target in assay [1] is T1, human insulin receptor (IR) on human IM-9 cells (human, UniProt P06213 28-1382).
T1 construct: whole, on cells; also called human IR
The assay is described as follows: competition with biotinylated RHI on IM-9 cells, flow cytometry, 4 C; material purified by Protein G. Here is the method: (§1) 40 µL of an IM-9 cell suspension (8×10⁶ cells/mL) was then added to each well by multichannel pipette, mixed again gently and incubated on ice for 30 min to allow competitive binding on the IR on IM-9 cells. Cells were then washed twice with 275µL of ice-cold FACS wash buffer (HBSS/2mM EDTA/0.1% Na-azide + 0.5% horse serum) by centrifuging the V-bottom plate at 3000 rpm for 3 min and aspirating the supernatant. Cells were then resuspended in 40µL of FACS staining medium containing 1:100 diluted Streptavidin-PE (Life Technologies) for 20 min on ice. Cells were then washed once with 275 µL of ice-cold FACS buffer and finally fixed with 3% paraformaldehyde for 10 min at room temp. Cells were then washed once with 275 µL of ice-cold FACS buffer and resuspended in 250µl of FACS buffer for analysis.
(§2) The insulin-Fc fusion proteins were manufactured in HEK293 cells according to Example 1 and purified using a Protein A or Protein G columns according to Example 4. […] Their %homodimer content was measured by size-exclusion chromatography according to Example 10, and their insulin receptor binding affinities were measured according to Example 12. Additionally, the insulin-Fc fusion protein affinities for the canine FcRn receptor were measured according to Example 15.
On the technique in general: Flow cytometry measures light scatter and fluorescence of single cells or particles in a stream.

In assay [2] the target is T1, human insulin receptor (IR) on human …. The assay is described as follows: competition with biotinylated RHI on IM-9 cells, flow cytometry, 4 C. On the procedure: as §1
(§3) The insulin-Fc fusion proteins were manufactured in HEK293 cells according to Example 1 and purified using a Protein A column according to Example 4. Their structures were confirmed according to Example 6 by non-reducing and reducing CE-SDS, and the sequences were further identified by LC-MS with glycan removal according to Example 8. Their %homodimer content was measured by size-exclusion chromatography according to Example 10, and their insulin receptor binding affinities were measured according to Example 12.

In assay [3] the target is T2, biotinylated canine FcRn (canine, UniProt A0A8I3PFR8 25-347, biotinylated, site not stated). The assay can be described thus: ELISA pH 5.5, fusion protein coated, biotinylated canine FcRn titrated. Here is the method:
(§4) Insulin-Fc fusion proteins comprising Fc fragments of canine origin were diluted to 10 µg/ml in sodium bicarbonate pH 9.6 buffer and coated in duplicate on Maxisorb ELISA plate strips for 1-2 hours at RT. The strips were then washed 4 times with PBST (PBS/0.1% Tween-20) buffer and blocked with Superblock blocking reagent (ThermoFisher). Strips for FcRn binding were then washed again twice with pH 5.5 MES/NaCl/Tween (50 mM MES/150mM NaCl/0.1% Tween-20) buffer before addition of the FcRn reagent (biotinylated canine FcRn; Immunitrack). Serial dilutions (1:3X dilutions) of biotinylated FcRn reagent were prepared in pH 5.5 MES/NaCl/Tween/10%Superblock buffer at concentrations from 1000 ng/ml to 0.45 ng/mL and loaded at 100 µL/well using a multichannel pipettor onto the strips coated with the insulin-Fc fusion protein compounds. The assay plate was then incubated for 1 hour at room temperature. FcRn binding strips were washed 4 times with pH 5.5 MES/NaCl/Tween buffer and then loaded with 100 µl/well streptavidin-HRP diluted 1:10000 in pH 5.5 MES/NaCl /10%Superblock buffer. After incubating for 45 minutes, strips were washed again 4 times with pH 5.5 MES/NaCl/Tween buffer. […] The plate was read in an ELISA plate reader at a wavelength of 450 nm. […] EC50 values for each binding curve were calculated to compare between different compounds.
(ELISA stands for enzyme-linked immunosorbent assay.)

For assay [4], the target named is T1, human insulin receptor (IR) on human …. The assay is described as follows: competition with biotinylated RHI on IM-9 cells, flow cytometry, 4 C. On the procedure:
as §1, §3
The source holds these as a separate data set.

The target in assay [5] is T3, biotinylated recombinant human Fc(gamma)RI (human, UniProt P12314 16-288, biotinylated, site not stated).
T3 construct: Bought reagent; construct not described; also called rhFc(gamma)RI; Fc(gamma) receptor I
T3 sequence (P12314 16-288 limits assumed): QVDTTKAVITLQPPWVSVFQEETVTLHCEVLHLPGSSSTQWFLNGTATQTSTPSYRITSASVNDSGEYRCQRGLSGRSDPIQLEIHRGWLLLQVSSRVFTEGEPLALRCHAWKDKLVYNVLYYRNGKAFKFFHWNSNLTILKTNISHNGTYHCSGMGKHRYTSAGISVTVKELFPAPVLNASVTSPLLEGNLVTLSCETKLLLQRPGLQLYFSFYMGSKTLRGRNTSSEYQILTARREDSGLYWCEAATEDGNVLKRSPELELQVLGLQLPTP
The assay is described as follows: ELISA, fusion protein coated, biotinylated rhFc(gamma)RI at 3000 ng/mL. Here is the method: The binding of insulin-Fc fusion proteins to the Fc(gamma)RI at pH 7.4 is conducted using an ELISA assay as follows using human Fc(gamma)RI (i.e., rhFc(gamma)RI). Insulin-Fc fusion proteins are diluted to 10 µg/mL in sodium bicarbonate buffer at pH 9.6 and coated on Maxisorp (Nunc) microtiter plates overnight at 4° C., after which the microplate strips are washed 5 times with PBST (PBS/0.05% Tween-20) buffer and blocked with Superblock blocking reagent (ThermoFisher). Serial dilutions of biotinylated rhFc(gamma)RI (recombinant human Fc(gamma)RI; R&D Systems) are prepared in PBST/10% Superblock buffer from 3000 ng/mL to 4.1 ng/mL and loaded at 100 µL/well onto the microplate strips coated with insulin-Fc fusion protein. The microtiter plate is incubated for 1 hour at room temperature after which time the microplate strips are washed 5 times with PBST and then loaded with 100 µL/well of streptavidin-HRP diluted 1:10000 in PBST/10% Superblock buffer. After incubating for 45 min, the microplate strips are washed again 5 times with PBST. TMB is added to reveal the bound Fc(gamma)RI proteins and is stopped with ELISA stop reagent (Boston Bioproducts). The plate is read in an ELISA plate reader at 450 nm, and the OD450 values (proportional to the binding of rhFc(gamma)RI to insulin-Fc protein) are plotted against log concentrations of rhFc(gamma)RI added to each well to generate binding curves using GraphPad Prism software. For groupings of compounds with somewhat similar curves, the OD450 at one of the higher concentrations, for instance at rhFc(gamma)RI concentrations of 3000 ng/mL, can be used to identify differences between coated insulin-Fc fusion protein compounds. […]
Finally, select compounds were tested for their likelihood to interact with the immune system by measuring their Fc(gamma) receptor binding activity according to the procedure of Example 15.

The target in assay [6] is T1, human insulin receptor (IR) on human …. The assay is described as follows: competition with biotinylated RHI on IM-9 cells, flow cytometry, 4 C. On the procedure:
as §1, §3
The source holds these as a separate data set.

Assay [7] shares this target. The description is as above. The source holds these as a separate data set.
For assay [8], the target named is T2, biotinylated canine FcRn. The assay can be described thus: FcRn ELISA; species of FcRn not given, taken as canine. Here is the method:
as §4

Assay [9] deals with T1, human insulin receptor (IR) on human …. The assay is described as follows: competition with biotinylated RHI on IM-9 cells, flow cytometry, 4 C; material purified via Protein A. Here is the method:
as §1, §2

Positions count from the first letter of the chain named.

T2 sequence (A0A8I3PFR8 entry or part of it): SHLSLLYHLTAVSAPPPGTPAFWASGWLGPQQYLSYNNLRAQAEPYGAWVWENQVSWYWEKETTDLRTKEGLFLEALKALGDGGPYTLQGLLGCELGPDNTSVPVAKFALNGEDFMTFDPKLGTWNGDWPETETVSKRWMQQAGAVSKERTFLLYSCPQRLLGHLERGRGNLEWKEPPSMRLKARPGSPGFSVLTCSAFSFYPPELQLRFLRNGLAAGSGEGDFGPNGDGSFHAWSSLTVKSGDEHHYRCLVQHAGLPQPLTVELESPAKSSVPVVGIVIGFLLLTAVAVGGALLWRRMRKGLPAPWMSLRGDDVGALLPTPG
T1 sequence (P06213 28-1382): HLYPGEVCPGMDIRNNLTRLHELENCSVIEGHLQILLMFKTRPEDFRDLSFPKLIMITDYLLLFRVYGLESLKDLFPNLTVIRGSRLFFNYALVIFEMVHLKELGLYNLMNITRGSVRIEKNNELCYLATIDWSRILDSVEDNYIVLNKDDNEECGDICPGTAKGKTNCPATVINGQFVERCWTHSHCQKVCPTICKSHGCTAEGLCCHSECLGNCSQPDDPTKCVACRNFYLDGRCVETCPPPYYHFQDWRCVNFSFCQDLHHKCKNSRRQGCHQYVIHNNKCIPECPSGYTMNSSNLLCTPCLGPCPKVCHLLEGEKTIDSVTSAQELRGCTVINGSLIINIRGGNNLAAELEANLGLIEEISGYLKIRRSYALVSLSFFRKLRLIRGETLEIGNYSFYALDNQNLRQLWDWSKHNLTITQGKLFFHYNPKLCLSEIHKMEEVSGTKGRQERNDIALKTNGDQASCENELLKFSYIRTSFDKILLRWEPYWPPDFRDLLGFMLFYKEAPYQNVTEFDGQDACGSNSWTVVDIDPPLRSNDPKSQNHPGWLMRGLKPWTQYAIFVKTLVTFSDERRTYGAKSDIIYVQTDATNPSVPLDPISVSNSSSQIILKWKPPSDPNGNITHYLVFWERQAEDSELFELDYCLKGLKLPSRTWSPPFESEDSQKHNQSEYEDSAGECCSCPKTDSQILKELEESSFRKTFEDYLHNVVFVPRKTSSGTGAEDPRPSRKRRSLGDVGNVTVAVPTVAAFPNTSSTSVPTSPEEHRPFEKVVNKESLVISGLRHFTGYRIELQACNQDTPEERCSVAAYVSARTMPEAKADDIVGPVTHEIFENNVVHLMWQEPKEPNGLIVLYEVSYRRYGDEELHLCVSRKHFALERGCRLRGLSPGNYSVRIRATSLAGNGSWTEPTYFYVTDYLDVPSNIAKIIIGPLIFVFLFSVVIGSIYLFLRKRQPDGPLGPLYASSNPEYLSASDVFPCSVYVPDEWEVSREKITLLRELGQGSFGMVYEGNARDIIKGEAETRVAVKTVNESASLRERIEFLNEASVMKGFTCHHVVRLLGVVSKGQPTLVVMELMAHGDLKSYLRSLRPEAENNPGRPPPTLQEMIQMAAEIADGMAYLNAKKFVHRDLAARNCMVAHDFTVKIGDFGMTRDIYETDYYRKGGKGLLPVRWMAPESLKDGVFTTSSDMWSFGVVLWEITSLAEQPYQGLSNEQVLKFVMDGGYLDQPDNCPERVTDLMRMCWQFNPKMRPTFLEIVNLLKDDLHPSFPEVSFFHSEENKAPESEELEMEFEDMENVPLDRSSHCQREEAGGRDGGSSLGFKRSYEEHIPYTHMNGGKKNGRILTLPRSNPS

B1: insulin-Fc fusion protein of SEQ ID NO: 59 (Fc fusion)
chain: FVNQHLCGSHLVEALELVCGERGFHYGGGGGGSGGGGGIVEQCCTSTCSLDQLENYCGGGGGQGGGGQGGGGQGGGGGCNNCPCPGCGLLGGPSVFIFPPKPKDILVTARTPTVTCVVVDLDPENPEVQISWFVDSKQVQTANTQPREEQSNGTYRVVSVLPIGHQDWLSGKQFKCKVNNKALPSPIEEIISKTPGQAHQPNVYVLPPSRDEMSKNTVTLTCLVKDFFPPEIDVEWQSNGQQEPESKYRMTPPQLDEDGSYFLYSKLSVDKSRWQRGDTFICAVMHEALHNHYTQISLSHSPG
notes: purified by Protein G
As to B1, the IC50 (usually the concentration that gives 50% inhibition) in [1] turned out to be 2080 nM.

B2: insulin-Fc fusion protein of SEQ ID NO: 26 (Fc fusion)
chain: FVNQHLCGSHLVEALELVCGERGFHYGGGGGGSGGGGGIVEQCCTSTCSLDQLENYCGGGGGQGGGGQGGGGQGGGGGDCPKCPAPEMLGGPSVFIFPPKPKDTLLIARTPEVTCVVVDLDPEDPEVQISWFVDGKQMQTAKTQPREEQFNGTYRVVSVLPIGHQDWLKGKQFTCKVNNKALPSPIERTISKARGQAHQPSVYVLPPSREELSKNTVSLTCLIKDFFPPDIDVEWQSNGQQEPESKYRTTPPQLDEDGSYFLYSKLSVDKSRWQRGDTFICAVMHEALHNHYTQESLSHSPG
modifications: native N-glycosylation site cNg-NB151
As for B2, in assay [2], the IC50 was 2340 nM. In assay [3], a half-maximal effect (EC50) was put at 0.599 µg/mL. In assay [4], this molecule showed an IC50 of 2340 nM. Also, in [5], the OD450nm was found to be 0.368, the “OD450nm minus assay background” value is 0.311 and the “ratio to SEQ ID NO: 36” value worked out at 0.84. Besides, the IC50 in [6] is 2340 nM.

B3: insulin-Fc fusion protein of SEQ ID NO: 30 (Fc fusion)
chain: B2 chain with E16A, N151S
In turn, B3 registered a half-inhibitory concentration (IC50) in assay [7] of 2040 nM. Further, a half-maximal effect in assay [8] (EC50) was put at 1.19 µg/mL. Moreover, in assay [5], the OD450nm amounted to 0.177, the “OD450nm minus assay background” value amounted to 0.12 and the “ratio to SEQ ID NO: 36” value turned out to be 0.32.

B4: insulin-Fc fusion protein of SEQ ID NO: 58 (Fc fusion)
chain: FVNQHLCGSHLVEALELVCGERGFHYGGGGGGSGGGGGIVEQCCTSTCSLDQLENYCGGGGGQGGGGQGGGGQGGGGGRCTDTPPCPVPEPLGGPSVLIFPPKPKDILRITRTPEVTCVVLDLGREDPEVQISWFVDGKEVHTAKTQSREQQFNGTYRVVSVLPIEHQDWLTGKEFKCRVNHIDLPSPIERTISKARGRAHKPSVYVLPPSPKELSSSDTVSITCLIKDFYPPDIDVEWQSNGQQEPERKHRMTPPQLDEDGSYFLYSKLSVDKSRWQQGDPFTCAVMHETLQNHYTDLSLSHSPG
notes: purified by Protein A or Protein G
Regarding B4, the response in assay [3] was half-maximal at 1.61 µg/mL (EC50). Also, in assay [5], the OD450nm was 0.253, the “OD450nm minus assay background” value is 0.196 and the “ratio to SEQ ID NO: 36” value is 0.53. In addition, the IC50 in [9] was 2590 nM.
